For this test, the target named is Alexa-647-labelled actin (UniProt P68135 1-377, Alexa-647 (Monolith NT Protein Labelling Kit RED-NHS)). The test is described as follows: MST.

This passage reports Kd results from article doi:10.1101/2024.09.06.611148 (bioRxiv, 2024).

B1: recombinant HYC2 (GST-HYC2 or HYC2-6XHis) (natural protein)
chain: MDFSVKPSGGSPSPSSSTSSSTPHRFKSVTTPTATAAAVSGFSPSAAADRDPMHSWWESVSKQRSRILSLSSLLSGDSHFEDGDVTPISSLADSDRPALSLLSSRAAYSLISNSLCNPASGSGSDPLCQWLYETYLSSDPPLRLVVLSFFPLLVGMYLSRIHSSDSTSLPSLSGFEAVLLAIYAAEVKARAGKPILVHIPDLSQPSLYHTPRNGVDKSRDSNPTASVGVLSPQLEPQIAVKSTKRASIVGVGLQCYFKEISQMPAWSKLEFCKFSASWAGQDCDCKEKIDEDEDKVLALTNGFGDSSSFNGSSGRSLEIEEDFDRLAIRENEEQLSSNGGGGGVGRGVRIPLPWELFQPTLRILGHCLLSPLNTEDVKDAASNAVRSLYARASHDLNPQAILATRSLVNLDTSARTSGKTVAAETVNGSSNVNTPSKAKKPEILLASK
In the case of B1, the Kd stood at 0.33 ± 0.08 µM.

One may read the Kd as the free concentration of one partner at which half of the binding sites on the other are occupied at equilibrium, for simple one-to-one binding. Low readings indicate tighter binding, high ones weaker binding.
